# Reference: patent US7037674
# Test system: cytochrome c
# Chain of cytochrome P-450 reductase purified from P. somniferum cell suspension cultures (chain, as listed by the source): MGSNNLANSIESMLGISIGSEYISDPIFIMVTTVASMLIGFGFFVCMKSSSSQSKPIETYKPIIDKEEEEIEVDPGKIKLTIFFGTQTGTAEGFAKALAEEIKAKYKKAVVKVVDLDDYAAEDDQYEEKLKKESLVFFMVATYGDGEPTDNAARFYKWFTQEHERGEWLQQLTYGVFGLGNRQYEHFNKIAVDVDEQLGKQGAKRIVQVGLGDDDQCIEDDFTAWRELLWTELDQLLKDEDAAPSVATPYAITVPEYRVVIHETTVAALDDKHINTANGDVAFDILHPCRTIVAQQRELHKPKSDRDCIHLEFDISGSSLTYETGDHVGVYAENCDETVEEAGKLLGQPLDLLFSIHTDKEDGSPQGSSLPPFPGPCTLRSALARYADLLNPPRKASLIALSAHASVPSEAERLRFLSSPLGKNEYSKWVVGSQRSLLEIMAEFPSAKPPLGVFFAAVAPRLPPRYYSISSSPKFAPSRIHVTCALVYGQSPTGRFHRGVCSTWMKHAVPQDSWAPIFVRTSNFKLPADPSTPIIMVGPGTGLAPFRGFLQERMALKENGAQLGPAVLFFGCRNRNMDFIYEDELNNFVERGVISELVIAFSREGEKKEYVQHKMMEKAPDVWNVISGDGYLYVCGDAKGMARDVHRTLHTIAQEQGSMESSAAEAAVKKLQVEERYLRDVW
substance,measurement,value
cytochrome P-450 reductase purified from P. somniferum cell suspension cultures,"Km (cytochrome c reduction, enzyme activity)",The Km value for cytochrome c was 8.3 µM
